The results in this text go back to publication PMC12051234, “NrdR in Streptococcus and Listeria spp.: DNA Helix Phase Dependence of the Bacterial Ribonucleotide Reductase Repressor”.

The term Kd denotes a measure of binding affinity in units of concentration.

Holding throughout (assay): MST; dATP + ATP; MST, temperature not stated. Lmo: 25 mM Bis-Tris propane pH 6.5, 100 mM KCl, 5 mM MgCl2, 5% glycerol, 1 mM DTT, 0.05% Tween 20, one nucleotide 1 mM or two at 0.5 mM each; Spn: 25 mM HEPES pH 7.2, 250 mM NaCl, 2.5 mM MgCl2, 15% glycerol, 2 mM DTT, 0.1 mg/mL BSA, 0.05% Tween 20, 0.5 mM ATP and/or dATP; Eco: 25 mM Tris pH 8.5, 100 mM NaCl, 7 mM MgCl2, 1 mM DTT, 0.025% Tween 20, 1 mM ATP + 1 mM dATP; …

One data set has as its target T1, ScoNrdR (Streptomyces coelicolor, UniProt O69980 1-182).
T1 sequence: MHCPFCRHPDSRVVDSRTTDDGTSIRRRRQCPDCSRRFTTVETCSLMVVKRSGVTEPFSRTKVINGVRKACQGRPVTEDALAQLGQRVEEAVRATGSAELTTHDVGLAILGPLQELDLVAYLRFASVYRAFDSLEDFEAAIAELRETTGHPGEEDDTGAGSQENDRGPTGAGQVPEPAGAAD
Conditions: protein: recombinant; chain copies: 4; label: 5'-Cy5 sense; blunt.

The target in another data set is T2, SpnNrdR (Streptococcus pneumoniae TIGR4, UniProt P67318 1-157).
T2 sequence: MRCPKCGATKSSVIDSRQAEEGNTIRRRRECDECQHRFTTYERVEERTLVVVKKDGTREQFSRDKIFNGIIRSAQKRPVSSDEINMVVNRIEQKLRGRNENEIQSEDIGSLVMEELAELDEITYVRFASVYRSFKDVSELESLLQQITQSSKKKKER
Conditions: protein: recombinant; tags: C-terminal His6; chain copies: 4; label: 5'-Cy5 sense; blunt.

The target in the next data set is T3, LmoNrdR (Listeria monocytogenes serotype 1/2a …, UniProt Q8Y6W9 1-154).
T3 sequence: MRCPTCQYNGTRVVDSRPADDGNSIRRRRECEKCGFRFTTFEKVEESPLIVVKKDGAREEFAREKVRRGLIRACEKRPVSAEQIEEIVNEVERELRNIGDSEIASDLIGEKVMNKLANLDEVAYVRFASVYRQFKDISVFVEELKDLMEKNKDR
The settings on record: protein: recombinant; tags: C-terminal His6; chain copies: 4; label: 5'-Cy5 sense; blunt.

A further data set has as its target T4, EcoNrdR (Escherichia coli, UniProt P0A8D0 1-149).
T4 sequence: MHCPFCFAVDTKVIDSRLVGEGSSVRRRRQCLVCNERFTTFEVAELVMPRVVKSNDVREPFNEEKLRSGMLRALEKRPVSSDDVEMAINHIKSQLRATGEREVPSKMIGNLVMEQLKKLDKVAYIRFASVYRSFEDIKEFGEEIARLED
The settings on record: protein: recombinant; chain copies: 4; label: 5'-Cy5 sense; blunt.

B1: Synt 27 bp spacer (dsDNA)
DNA 1: GCCAAACACAACATCTAGTGGTTGGATAGCGTGAAGTTACCACCTAGCACACAACATCTAGTGGACCTC
DNA 2: GAGGTCCACTAGATGTTGTGTGCTAGGTGGTAACTTCACGCTATCCAACCACTAGATGTTGTGTTTGGC
For B1, the Kd in the data set with ScoNrdR stood at 3500 ± 626 nM; with SpnNrdR, 3190 ± 238 nM; in the data set with LmoNrdR, 18 ± 6 nM; in the data set with EcoNrdR, 27 ± 8 nM.
